The record followed here is patent publication US20250223376A1 (VOYAGER THERAPEUTICS, published 2025).

Assay [1] deals with T1, HER2 ECD (human, UniProt P04626 23-652).
T1 construct: extracellular domain; also called HER2/neu; ErbB2
The assay can be described thus: SPR Biacore 8K, captured Ab, HER2 ECD analyte; replicate 1. Background: Surface plasmon resonance follows binding to a sensor surface in real time, without labels.

Assay [2] concerns the target T1, HER2 ECD. Nature of the assay: SPR Biacore 8K, captured Ab, HER2 ECD analyte; replicate 2.
Assay [3] deals with T1, HER2 ECD. Nature of the assay: SPR Biacore 8K, captured Ab, HER2 ECD analyte; printed mean.

“And” between values parts separate entries of the source, which are not always exact repeats. Identical values can stand only once.

B1: HER-78 anti-HER2 bispecific antibody molecule (bispecific antibody)
chain 1: QVQLVQSGAEVKKPGASVKVSCKASGYSFTGYFINWVREAPGQGLEWMGHISSSYATSTYNQKFQGRVTFTVDTSSSTAYMELSSLRSEDTAVYYCVRSGNYEEYAMDYWGQGTLVTVSS
chain 2: not shown
What is called Kd is the constant that tells how readily two partners part at equilibrium. The low end stands for a tighter complex, the high end for a looser complex. One may read the koff as the rate constant with which the complex falls apart. A high value points to a short-lived complex. The kon is the rate constant with which the complex forms. Turning to B1, the Kd was 0.54 nM and 0.544 nM with HER2 ECD [1]; 0.57 nM in the assay with HER2 ECD [2]; 0.44 nM and 0.436 nM in the assay with HER2 ECD [3]. Besides, the koff came to 7.53e-05 s⁻¹ with HER2 ECD [1], 9.89e-05 s⁻¹ in the assay with HER2 ECD [2] and 7.28e-05 s⁻¹ with HER2 ECD [3]. Also, the kon with HER2 ECD [1] was 138000 M⁻¹ s⁻¹; in the assay with HER2 ECD [2] it was 174000 M⁻¹ s⁻¹; with HER2 ECD [3], 164000 M⁻¹ s⁻¹.
